Experiments:
[1] = tested on: TePif1 (Thermotoga elfii (Pseudothermotoga elfii)); assay: EMSA
[2] = tested on: TePif1-4x (Thermotoga elfii (Pseudothermotoga elfii)); assay: EMSA

Substance	Kd [1]	further results
Fork	4.4 nM	
ssDNA 45-nt	0.93 nM	
5' tail	4.53 nM	
TTTTTTTTTTTTTTTTTTTTTTTTTTTTTTTTTTTTTTTTTTTTTTTTTT [poly(dT) 50mer]		binding signal [2]: 5 % bound
3' tail		binding signal [1]: > 20 % bound

Reference: doi:10.1101/163188
